FireProtDB (doi:10.1074/jbc.m705677200)

Conditions: Helicobacter pylori (strain ATCC 700392 / 26695), 25.2 °C, Urea, whole UniProt chain shown
[1] = pH 2, CD, Sodium phosphate 23 mM
[2] = pH 2, Fluorescence, Sodium phosphate 23 mM
[3] = pH 5, Fluorescence, Sodium acetate 16 mM

B1: Flavodoxin wild type, O25776 (protein)
chain: MGKIGIFFGTDSGNAEAIAEKISKAIGNAEVVDVAKASKEQFNSFTKVILVAPTAGAGDLQTDWEDFLGTLEASDFATKTIGLVGLGDQDTYSETFAEGIFHIYEKAKAGKVVGQTPTDGYHFEASKAVEGGKFVGLVIDEDNQDDLTDERISKWVEQVKGSFA
- denaturant m value [1]: 1.28 kcal/mol/M
- denaturant midpoint (higher = more stable) [1]: 0.89 M
- unfolding free energy [1]: 1.14 kcal/mol
- denaturant m value [2]: 1.35 kcal/mol/M
- denaturant midpoint (higher = more stable) [2]: 0.84 M
- unfolding free energy [2]: 1.13 kcal/mol
- denaturant m value (pH 5, CD, Sodium acetate 16 mM): 2.24 kcal/mol/M
- denaturant midpoint (higher = more stable) (pH 5, CD, Sodium acetate 16 mM): 4.1 M
- unfolding free energy (pH 5, CD, Sodium acetate 16 mM): 9.2 kcal/mol
- denaturant m value [3]: 2.32 kcal/mol/M
- denaturant midpoint (higher = more stable) [3]: 4.04 M
- unfolding free energy [3]: 9.37 kcal/mol
- denaturant m value (pH 7, CD, MOPS 30 mM): 2.11 kcal/mol/M
- denaturant midpoint (higher = more stable) (pH 7, CD, MOPS 30 mM): 2.94 M
- unfolding free energy (pH 7, CD, MOPS 30 mM): 6.2 kcal/mol
- denaturant m value (pH 7, Fluorescence, MOPS 30 mM): 2.18 kcal/mol/M
- denaturant midpoint (higher = more stable) (pH 7, Fluorescence, MOPS 30 mM): 3.01 M
- unfolding free energy (pH 7, Fluorescence, MOPS 30 mM): 6.56 kcal/mol
- denaturant m value (pH 9, CD, CHES 35 mM): 2.19 kcal/mol/M
- denaturant midpoint (higher = more stable) (pH 9, CD, CHES 35 mM): 2.16 M
- unfolding free energy (pH 9, CD, CHES 35 mM): 4.73 kcal/mol
- denaturant m value (pH 9, Fluorescence, CHES 35 mM): 2.03 kcal/mol/M
- denaturant midpoint (higher = more stable) (pH 9, Fluorescence, CHES 35 mM): 2.21 M
- unfolding free energy (pH 9, Fluorescence, CHES 35 mM): 4.5 kcal/mol
